Reference: patent US20190022222A1, “NEUTRON CAPTURE THERAPY SYSTEM FOR ELIMINATING AMYLOID Beta-PROTEIN DEPOSITION PLAQUE” (NEUBORON MEDTECH LTD., priority 2016, published 2019)

Columns and labels:
amyloid β-protein = amyloid β-protein (Homo sapiens, UniProt P05067); experiment: equilibrium dissociation constant KD with amyloid β-protein solution; type: binding; conditions: amyloid β-protein solution 10 μM, compound 0.1 to 10 μM, room temperature 20 min
Experimental: In the examples of the present disclosure, the affinity of the ^10B-containing compound and the amyloid β-protein deposition plaque is evaluated by using the equilibrium dissociation constant KD value. KD can indicate the degree of dissociation of the two substances in the equilibrium state.
The amyloid β-protein solution was prepared at a concentration of 10 μM and mixed with compound I or compound II at different concentrations (concentrations ranging from 0.1 to 10 μM). […] In addition, a known compound capable of specifically binding to amyloid β-protein was used as a control and mixed with a amyloid β-protein solution at a concentration of 10 μM and allowed to stand at room temperature for 20 min. The equilibrium dissociation constant KD was also measured and calculated.

Aβ = conditions: phase III clinical trial, latest results; cited from earlier work
Sequence of Aβ (P05067 672-711 limits assumed): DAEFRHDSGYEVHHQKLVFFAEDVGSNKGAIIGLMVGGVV

Sequence of amyloid β-protein (P05067 672-713 limits assumed): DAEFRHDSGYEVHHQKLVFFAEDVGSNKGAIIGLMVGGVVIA

Molecule: Cc1ccc(C(=O)/C=C/c2ccc(N)cc2)o1 [control]
- Kd (amyloid β-protein): 1590 nM

B1: Gantenerumab: monoclonal antibody that binds to the N-terminal epitope of Aβ (antibody, chains of the INN, looked up, V domains shown)
VH: QVELVESGGGLVQPGGSLRLSCAASGFTFSSYAMSWVRQAPGKGLEWVSAINASGTRTYYADSVKGRFTISRDNSKNTLYLQMNSLRAEDTAVYYCARGKGNTHKPYGYVRYFDVWGQGTLVTVSS
VL: DIVLTQSPATLSLSPGERATLSCRASQSVSSSYLAWYQQKPGQAPRLLIYGASSRATGVPARFSGSGSGTDFTLTISSLEPEDFATYYCLQIYNMPITFGQGTKVEIK
- Aβ level in cerebrospinal fluid (Aβ): does not significantly reduce
- tau protein level in cerebrospinal fluid (Aβ): significantly reduces
